Source: patent publication US20160176932A1 (Janssen / Centocor, published 2016)

How the values were obtained:
A2_F24 VI56IV (RSV A2) = A2_F24 VI56IV (RSV A2) (UniProt P03420); assay: Octet endpoint assay, CR9501 on sensor, culture supernatant
B1_N67I, S215P loop = target: T1, B1_N67I, S215P loop (RSV B1, UniProt O36634 26-540); assay: Quantitative Octet, CR9501 on sensor, culture supernatant
T1 construct: Whole entry named; it begins with the signal peptide 1-26; also called PreFL N67I S215P, RSV B1, fibritin, Loop; F24-N67I + S215P: RSV B1, linker stabilized, fibritin
T1 chain: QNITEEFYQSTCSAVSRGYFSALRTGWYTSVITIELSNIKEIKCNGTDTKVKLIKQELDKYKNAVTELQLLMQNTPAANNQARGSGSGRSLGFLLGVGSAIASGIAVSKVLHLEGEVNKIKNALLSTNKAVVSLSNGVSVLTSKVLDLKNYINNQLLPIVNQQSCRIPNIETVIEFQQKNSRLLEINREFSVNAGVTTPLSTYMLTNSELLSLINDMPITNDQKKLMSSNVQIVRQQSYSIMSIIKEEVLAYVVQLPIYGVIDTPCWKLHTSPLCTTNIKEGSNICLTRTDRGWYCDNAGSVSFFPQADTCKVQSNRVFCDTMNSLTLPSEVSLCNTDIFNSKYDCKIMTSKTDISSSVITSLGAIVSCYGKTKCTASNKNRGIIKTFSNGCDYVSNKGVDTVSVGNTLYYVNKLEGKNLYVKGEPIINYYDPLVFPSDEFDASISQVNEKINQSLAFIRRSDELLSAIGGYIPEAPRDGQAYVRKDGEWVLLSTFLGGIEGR
Description: (§1) To measure concentration of the pre-fusion RSV F protein in cell culture supernatants, quantitative Octet-based method was used. […] Afterwards, the coated biosensors were blocked in mock cell culture supernatant. Quantitative experiment was performed as follows: temperature 30° C., shaking speed 1000 rpm, time of the assay 300 seconds. Concentration of the protein in the cell culture supernatant was calculated using standard curve. The standard curve was prepared for each coated antibody using the A2_F24 N67I+S215P (SEQ NO:21) protein, diluted in mock cell culture supernatant. The measurement was done on the day of supernatant harvest (day 1) and after storage of the supernatant at 4° C. for 5 days or longer. […] The data analysis was done using the FORTEBIO® Data Analysis 6.4 software (FORTEBIO®).

B1_N67I, S215P = target: T2, B1_N67I, S215P (RSV B1, UniProt O36634 27-109; O36634 137-540); assay: as above
T2 construct: also called PreF N67I S215P, RSV B1, fibritin
T2 chain 1: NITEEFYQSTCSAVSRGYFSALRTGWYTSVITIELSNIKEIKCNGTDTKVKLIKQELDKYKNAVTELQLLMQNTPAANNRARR
T2 chain 2: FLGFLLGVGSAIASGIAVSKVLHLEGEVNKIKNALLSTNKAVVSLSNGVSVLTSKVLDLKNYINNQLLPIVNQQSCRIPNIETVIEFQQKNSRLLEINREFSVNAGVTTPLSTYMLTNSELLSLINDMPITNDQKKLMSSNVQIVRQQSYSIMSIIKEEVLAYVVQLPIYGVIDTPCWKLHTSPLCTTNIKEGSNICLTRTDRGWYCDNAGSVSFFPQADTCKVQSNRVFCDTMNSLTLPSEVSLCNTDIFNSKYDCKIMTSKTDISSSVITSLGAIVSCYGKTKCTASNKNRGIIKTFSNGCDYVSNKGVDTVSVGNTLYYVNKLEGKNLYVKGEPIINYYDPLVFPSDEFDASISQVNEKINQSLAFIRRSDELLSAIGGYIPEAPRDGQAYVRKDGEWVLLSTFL
Description: as §1

## CR9501 (antibody)
A2_F24 VI56IV (RSV A2)
  % of CR9501 binding after 5 days at 4 C relative to day 1: 54%

B1: CR9501 (antibody, V domains shown)
VH: QVQLVQSGPGLVKPSQTLALTCNVSGASINSDNYYWTWIRQRPGGGLEWIGHISYTGNTYYTPSLKSRLSMSLETSQSQFSLRLTSVTAADSAVYFCAACGAYVLISNCGWFDSWGQGTQVTVSS
VL: EIVMTQSPSSLSASIGDRVTITCQASQDISTYLNWYQQKPGQAPRLLIYGASNLETGVPSRFTGSGYGTDFSVTISSLQPEDIATYYCQQYQYLPYTFAPGTKVEIK
notes: Monoclonal antibody with the variable regions of 58C5; Biotinylated and immobilised on streptavidin sensors in the Octet assays; also called pre-fusion-specific Mab CR9501
B1_N67I, S215P loop
  % protein concentration (CR9501) after 5 days at 4 C relative to day of harvest: 108%
B1_N67I, S215P
  % protein concentration (CR9501) after 5 days at 4 C relative to day of harvest: 90.9%
